Earlier results in patent US11845786B2, “Peptides inhibiting KLK1, KLK4, or KLK4 and KLK8” (Daiichi Sankyo Company, Limited, priority 2017, dated 2023).

Key:
KLK12 = target: T1, KLK12 (Homo sapiens, UniProt Q9UKR0); details: Non Patent Literature 5
T1 sequence (Q9UKR0 18-248): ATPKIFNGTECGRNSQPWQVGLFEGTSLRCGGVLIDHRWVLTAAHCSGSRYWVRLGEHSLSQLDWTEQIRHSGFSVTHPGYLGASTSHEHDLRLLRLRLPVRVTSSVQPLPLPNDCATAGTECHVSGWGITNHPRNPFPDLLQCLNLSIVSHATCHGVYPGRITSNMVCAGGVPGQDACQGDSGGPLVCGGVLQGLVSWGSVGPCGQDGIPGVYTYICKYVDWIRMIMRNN

KLK13 = target: T2, KLK13 (Homo sapiens, UniProt Q9UKR3); details: Non Patent Literature 5
T2 sequence (Q9UKR3 17-277): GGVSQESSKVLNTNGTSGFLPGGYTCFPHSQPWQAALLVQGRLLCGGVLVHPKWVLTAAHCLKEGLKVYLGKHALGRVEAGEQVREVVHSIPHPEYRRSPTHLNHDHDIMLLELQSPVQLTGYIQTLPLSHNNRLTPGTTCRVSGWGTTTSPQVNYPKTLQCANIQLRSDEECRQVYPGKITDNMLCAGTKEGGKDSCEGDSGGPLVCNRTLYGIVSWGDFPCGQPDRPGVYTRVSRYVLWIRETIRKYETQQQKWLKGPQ

KLK4 = KLK4 (Homo sapiens, UniProt Q9Y5K2); details: Non Patent Literature 5
KLK8 = target: T3, KLK8 (Homo sapiens, UniProt O60259); details: Non Patent Literature 7
T3 sequence (O60259 33-260): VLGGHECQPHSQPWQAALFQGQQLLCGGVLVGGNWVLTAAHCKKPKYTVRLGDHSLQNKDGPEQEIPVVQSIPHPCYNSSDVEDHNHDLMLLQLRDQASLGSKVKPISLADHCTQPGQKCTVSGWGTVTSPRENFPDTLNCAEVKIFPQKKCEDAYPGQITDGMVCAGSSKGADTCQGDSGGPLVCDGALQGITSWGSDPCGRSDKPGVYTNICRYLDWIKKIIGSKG

Sequence of KLK4 (Q9Y5K2 31-254): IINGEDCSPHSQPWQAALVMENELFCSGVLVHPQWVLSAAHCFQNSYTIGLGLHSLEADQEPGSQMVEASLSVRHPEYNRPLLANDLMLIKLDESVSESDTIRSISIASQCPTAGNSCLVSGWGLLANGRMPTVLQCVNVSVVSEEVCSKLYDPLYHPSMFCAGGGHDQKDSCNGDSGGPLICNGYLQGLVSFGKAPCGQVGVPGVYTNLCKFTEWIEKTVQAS

For “SPINK6: human serine protease of Kazal-type 6, natural KLK4 inhibitor of low specificity (QGGQVDCGEFQDPKVYCTRESNPHCGSDGQTYGNKCAFCKAIVKSGGKISLKHPGKC; UniProt Q6UWN8 24-80, looked up)”, the Ki (KLK12) is given as 1 nM, the Ki (KLK13) is given as 1 nM and the Ki (KLK4) is given as 27 nM.

B1: SPINK9: human serine protease of Kazal-type 9, reported to have KLK8 inhibitory activity (protein, UniProt Q5DT21 20-86, looked up)
Serine protease inhibitor …: IECAKQTKQMVDCSHYKKLPPGQQRFCHHMYDPICGSDGKTYKNDCFFCSKVKKTDGTLKFVHFGKC
In the case of B1, the KLK8 inhibitory activity (KLK8) is listed as “very weak”.
